One block for each binder: values may come before it.
Biological target: T1, soluble human GPC3 (human, UniProt P51654 25-563, limits assumed)
T1 construct: soluble human GPC3 as analyte; also called glypican 3
Experiment: SPR (Biacore), soluble human GPC3

T1 sequence (P51654 other isoform, or with tags, fused parts or gaps limits assumed, form in doubt): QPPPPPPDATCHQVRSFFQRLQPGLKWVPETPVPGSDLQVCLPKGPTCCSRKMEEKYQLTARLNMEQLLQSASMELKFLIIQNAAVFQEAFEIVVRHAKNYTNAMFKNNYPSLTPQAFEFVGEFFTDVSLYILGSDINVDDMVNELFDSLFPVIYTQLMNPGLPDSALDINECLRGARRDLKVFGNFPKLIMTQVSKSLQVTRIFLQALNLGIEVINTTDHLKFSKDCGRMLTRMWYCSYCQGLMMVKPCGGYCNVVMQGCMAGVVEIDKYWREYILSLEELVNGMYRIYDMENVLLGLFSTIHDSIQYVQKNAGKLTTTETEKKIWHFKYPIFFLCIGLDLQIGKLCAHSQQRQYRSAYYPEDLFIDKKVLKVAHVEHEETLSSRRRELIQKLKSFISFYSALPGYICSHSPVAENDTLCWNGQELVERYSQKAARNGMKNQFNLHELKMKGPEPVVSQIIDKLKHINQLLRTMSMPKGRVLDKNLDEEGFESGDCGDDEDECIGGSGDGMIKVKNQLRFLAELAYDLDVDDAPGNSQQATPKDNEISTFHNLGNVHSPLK

B3: GCH094-G1dh/none-Hi-Kn010G3/L0270-k0 (antibody, human IgG1, kappa)
heavy: not shown
chain: EPKSSDKTHTCPPCPAPELLGGPSVFLFPPKPKDTLMISRTPEVTCVVVDVSHEDPEVKFNWYVDGVEVHNAKTKPREEQYNSTYRVVSVLTVLHQDWLNGKEYKCKVSNKALPAPIEKTISKAKGQPREPQVCTLPPSRDELTKNQVSLWCLVKGFYPSDIAVEWESNGQPENNYKTTPPVLDSDGSFFLYSKLTVDKSRWQQGNVFSCSVMHEALHNRYTQKSLSLSP
light: DIVMTQSPLSLPVTPGEPASISCRSSQSLVHSNRQTYLHWYQQKPGQAPRLLIYKVSNRFSGVPDRFSGSGSGTDFTLKISRVEAEDVGVYYCGQGTQVPYTFGQGTKLEIKRTVAAPSVFIFPPSDEQLKSGTASVVCLLNNFYPREAKVQWKVDNALQSGNSQESVTEQDSKDSTYSLSSTLTLSKADYEKHKVYACEVTHQGLSSPVTKSFNRGEC
notes: single-arm (one Fab)
Kd: 3.6 nM

B5: GCH065-G1dh/none-Hi-Kn010G3/L0272-k0 (antibody, human IgG1, kappa)
heavy: not shown
chain: EPKSSDKTHTCPPCPAPELLGGPSVFLFPPKPKDTLMISRTPEVTCVVVDVSHEDPEVKFNWYVDGVEVHNAKTKPREEQYNSTYRVVSVLTVLHQDWLNGKEYKCKVSNKALPAPIEKTISKAKGQPREPQVCTLPPSRDELTKNQVSLWCLVKGFYPSDIAVEWESNGQPENNYKTTPPVLDSDGSFFLYSKLTVDKSRWQQGNVFSCSVMHEALHNRYTQKSLSLSP
light: DIVMTQSPLSLPVTPGEPASISCRSSQPLVHSNRQTYLHWYQQKPGQAPRLLIYKVSNRFSGVPDRFSGSGSGTDFTLKISRVEAEDVGVYYCGQGTQVPYTFGQGTKLEIKRTVAAPSVFIFPPSDEQLKSGTASVVCLLNNFYPREAKVQWKVDNALQSGNSQESVTEQDSKDSTYSLSSTLTLSKADYEKHKVYACEVTHQGLSSPVTKSFNRGEC
notes: single-arm (one Fab)
Kd: 0.393 nM

B6: GCH094-G1dh/none-Hi-Kn010G3/L0246-k0 (antibody, human IgG1, kappa)
heavy: not shown
chain: EPKSSDKTHTCPPCPAPELLGGPSVFLFPPKPKDTLMISRTPEVTCVVVDVSHEDPEVKFNWYVDGVEVHNAKTKPREEQYNSTYRVVSVLTVLHQDWLNGKEYKCKVSNKALPAPIEKTISKAKGQPREPQVCTLPPSRDELTKNQVSLWCLVKGFYPSDIAVEWESNGQPENNYKTTPPVLDSDGSFFLYSKLTVDKSRWQQGNVFSCSVMHEALHNRYTQKSLSLSP
light: DIVMTQSPLSLPVTPGEPASISCRSSQSPVHSNRNTYIQWYQQKPGQAPRLLIYKVSNRFSGVPDRFSGSGSGTDFTLKISRVEAEDVGVYYCSQGTQVPYTFGQGTKLEIKRTVAAPSVFIFPPSDEQLKSGTASVVCLLNNFYPREAKVQWKVDNALQSGNSQESVTEQDSKDSTYSLSSTLTLSKADYEKHKVYACEVTHQGLSSPVTKSFNRGEC
notes: single-arm (one Fab)
Kd: 0.00412 nM

B7: GCH073-G1dh/none-Hi-Kn010G3/L0011-k0 (antibody, human IgG1, kappa)
heavy: not shown
chain: EPKSSDKTHTCPPCPAPELLGGPSVFLFPPKPKDTLMISRTPEVTCVVVDVSHEDPEVKFNWYVDGVEVHNAKTKPREEQYNSTYRVVSVLTVLHQDWLNGKEYKCKVSNKALPAPIEKTISKAKGQPREPQVCTLPPSRDELTKNQVSLWCLVKGFYPSDIAVEWESNGQPENNYKTTPPVLDSDGSFFLYSKLTVDKSRWQQGNVFSCSVMHEALHNRYTQKSLSLSP
light: DIVMTQSPLSLPVTPGEPASISCRSSQPLVHSNRNTYLHWYQQKPGQAPRLLIYKVSNRFSGVPDRFSGSGSGTDFTLKISRVEAEDVGVYYCGQGTQVPYTFGQGTKLEIKRTVAAPSVFIFPPSDEQLKSGTASVVCLLNNFYPREAKVQWKVDNALQSGNSQESVTEQDSKDSTYSLSSTLTLSKADYEKHKVYACEVTHQGLSSPVTKSFNRGEC
notes: single-arm (one Fab)
Kd: 0.91 nM

B8: GCH094-G1dh/none-Hi-Kn010G3/L0271-k0 (antibody, human IgG1, kappa)
heavy: not shown
chain: EPKSSDKTHTCPPCPAPELLGGPSVFLFPPKPKDTLMISRTPEVTCVVVDVSHEDPEVKFNWYVDGVEVHNAKTKPREEQYNSTYRVVSVLTVLHQDWLNGKEYKCKVSNKALPAPIEKTISKAKGQPREPQVCTLPPSRDELTKNQVSLWCLVKGFYPSDIAVEWESNGQPENNYKTTPPVLDSDGSFFLYSKLTVDKSRWQQGNVFSCSVMHEALHNRYTQKSLSLSP
light: DIVMTQSPLSLPVTPGEPASISCRSSQPPVHSNRQTYLHWYQQKPGQAPRLLIYKVSNRFSGVPDRFSGSGSGTDFTLKISRVEAEDVGVYYCGQGTQVPYTFGQGTKLEIKRTVAAPSVFIFPPSDEQLKSGTASVVCLLNNFYPREAKVQWKVDNALQSGNSQESVTEQDSKDSTYSLSSTLTLSKADYEKHKVYACEVTHQGLSSPVTKSFNRGEC
notes: single-arm (one Fab)
Kd: 0.692 nM

B9: GCH073-G1dh/none-Hi-Kn010G3/L0201-k0 (antibody, human IgG1, kappa)
heavy: not shown
chain: EPKSSDKTHTCPPCPAPELLGGPSVFLFPPKPKDTLMISRTPEVTCVVVDVSHEDPEVKFNWYVDGVEVHNAKTKPREEQYNSTYRVVSVLTVLHQDWLNGKEYKCKVSNKALPAPIEKTISKAKGQPREPQVCTLPPSRDELTKNQVSLWCLVKGFYPSDIAVEWESNGQPENNYKTTPPVLDSDGSFFLYSKLTVDKSRWQQGNVFSCSVMHEALHNRYTQKSLSLSP
light: DIVMTQSPLSLPVTPGEPASISCRSSQPPVHSNRNTYLHWYQQKPGQAPRLLIYKVSNRFSGVPDRFSGSGSGTDFTLKISRVEAEDVGVYYCGQGTQVPYTFGQGTKLEIKRTVAAPSVFIFPPSDEQLKSGTASVVCLLNNFYPREAKVQWKVDNALQSGNSQESVTEQDSKDSTYSLSSTLTLSKADYEKHKVYACEVTHQGLSSPVTKSFNRGEC
notes: single-arm (one Fab)
Kd: 0.035 nM

B11: GCH098-G1dh/none-Hi-Kn010G3/L0000-k0 (antibody, human IgG1, kappa)
heavy: not shown
chain: EPKSSDKTHTCPPCPAPELLGGPSVFLFPPKPKDTLMISRTPEVTCVVVDVSHEDPEVKFNWYVDGVEVHNAKTKPREEQYNSTYRVVSVLTVLHQDWLNGKEYKCKVSNKALPAPIEKTISKAKGQPREPQVCTLPPSRDELTKNQVSLWCLVKGFYPSDIAVEWESNGQPENNYKTTPPVLDSDGSFFLYSKLTVDKSRWQQGNVFSCSVMHEALHNRYTQKSLSLSP
light: DIVMTQSPLSLPVTPGEPASISCRSSQSLVHSNRNTYLHWYQQKPGQAPRLLIYKVSNRFSGVPDRFSGSGSGTDFTLKISRVEAEDVGVYYCGQGTQVPYTFGQGTKLEIKRTVAAPSVFIFPPSDEQLKSGTASVVCLLNNFYPREAKVQWKVDNALQSGNSQESVTEQDSKDSTYSLSSTLTLSKADYEKHKVYACEVTHQGLSSPVTKSFNRGEC
notes: single-arm (one Fab)
Kd: 1.77 nM

B12: GCH066-G1dh/none-Hi-Kn010G3/L0000-k0 (antibody, human IgG1, kappa)
heavy: not shown
chain: EPKSSDKTHTCPPCPAPELLGGPSVFLFPPKPKDTLMISRTPEVTCVVVDVSHEDPEVKFNWYVDGVEVHNAKTKPREEQYNSTYRVVSVLTVLHQDWLNGKEYKCKVSNKALPAPIEKTISKAKGQPREPQVCTLPPSRDELTKNQVSLWCLVKGFYPSDIAVEWESNGQPENNYKTTPPVLDSDGSFFLYSKLTVDKSRWQQGNVFSCSVMHEALHNRYTQKSLSLSP
light: DIVMTQSPLSLPVTPGEPASISCRSSQSLVHSNRNTYLHWYQQKPGQAPRLLIYKVSNRFSGVPDRFSGSGSGTDFTLKISRVEAEDVGVYYCGQGTQVPYTFGQGTKLEIKRTVAAPSVFIFPPSDEQLKSGTASVVCLLNNFYPREAKVQWKVDNALQSGNSQESVTEQDSKDSTYSLSSTLTLSKADYEKHKVYACEVTHQGLSSPVTKSFNRGEC
notes: single-arm (one Fab)
Kd: 4.29 nM

Continued, values first:

Kd: 0.0118 nM
B1: GCH065-G1dh/none-Hi-Kn010G3/L0262-k0 (antibody, human IgG1, kappa)
heavy: not shown
chain: EPKSSDKTHTCPPCPAPELLGGPSVFLFPPKPKDTLMISRTPEVTCVVVDVSHEDPEVKFNWYVDGVEVHNAKTKPREEQYNSTYRVVSVLTVLHQDWLNGKEYKCKVSNKALPAPIEKTISKAKGQPREPQVCTLPPSRDELTKNQVSLWCLVKGFYPSDIAVEWESNGQPENNYKTTPPVLDSDGSFFLYSKLTVDKSRWQQGNVFSCSVMHEALHNRYTQKSLSLSP
light: DIVMTQSPLSLPVTPGEPASISCRSSQPPVHSNRNTYLHWYQQKPGQAPRLLIYKVSNRFSGVPDRFSGSGSGTDFTLKISRVEAEDVGVYYCAQGTQVPYTFGQGTKLEIKRTVAAPSVFIFPPSDEQLKSGTASVVCLLNNFYPREAKVQWKVDNALQSGNSQESVTEQDSKDSTYSLSSTLTLSKADYEKHKVYACEVTHQGLSSPVTKSFNRGEC
notes: single-arm (one Fab)

Kd: 2 nM
B2: GCH073-G1dh/none-Hi-Kn010G3/L0000-k0 (antibody, human IgG1, kappa)
heavy: not shown
chain: EPKSSDKTHTCPPCPAPELLGGPSVFLFPPKPKDTLMISRTPEVTCVVVDVSHEDPEVKFNWYVDGVEVHNAKTKPREEQYNSTYRVVSVLTVLHQDWLNGKEYKCKVSNKALPAPIEKTISKAKGQPREPQVCTLPPSRDELTKNQVSLWCLVKGFYPSDIAVEWESNGQPENNYKTTPPVLDSDGSFFLYSKLTVDKSRWQQGNVFSCSVMHEALHNRYTQKSLSLSP
light: DIVMTQSPLSLPVTPGEPASISCRSSQSLVHSNRNTYLHWYQQKPGQAPRLLIYKVSNRFSGVPDRFSGSGSGTDFTLKISRVEAEDVGVYYCGQGTQVPYTFGQGTKLEIKRTVAAPSVFIFPPSDEQLKSGTASVVCLLNNFYPREAKVQWKVDNALQSGNSQESVTEQDSKDSTYSLSSTLTLSKADYEKHKVYACEVTHQGLSSPVTKSFNRGEC
notes: single-arm (one Fab)

Kd: 2.1 nM
B4: GCH094-G1dh/none-Hi-Kn010G3/L0272-k0 (antibody, human IgG1, kappa)
heavy: not shown
chain: EPKSSDKTHTCPPCPAPELLGGPSVFLFPPKPKDTLMISRTPEVTCVVVDVSHEDPEVKFNWYVDGVEVHNAKTKPREEQYNSTYRVVSVLTVLHQDWLNGKEYKCKVSNKALPAPIEKTISKAKGQPREPQVCTLPPSRDELTKNQVSLWCLVKGFYPSDIAVEWESNGQPENNYKTTPPVLDSDGSFFLYSKLTVDKSRWQQGNVFSCSVMHEALHNRYTQKSLSLSP
light: DIVMTQSPLSLPVTPGEPASISCRSSQPLVHSNRQTYLHWYQQKPGQAPRLLIYKVSNRFSGVPDRFSGSGSGTDFTLKISRVEAEDVGVYYCGQGTQVPYTFGQGTKLEIKRTVAAPSVFIFPPSDEQLKSGTASVVCLLNNFYPREAKVQWKVDNALQSGNSQESVTEQDSKDSTYSLSSTLTLSKADYEKHKVYACEVTHQGLSSPVTKSFNRGEC
notes: single-arm (one Fab)

Kd: 1.17 nM
B10: GCH094-G1dh/none-Hi-Kn010G3/L0201-k0 (antibody, human IgG1, kappa)
heavy: not shown
chain: EPKSSDKTHTCPPCPAPELLGGPSVFLFPPKPKDTLMISRTPEVTCVVVDVSHEDPEVKFNWYVDGVEVHNAKTKPREEQYNSTYRVVSVLTVLHQDWLNGKEYKCKVSNKALPAPIEKTISKAKGQPREPQVCTLPPSRDELTKNQVSLWCLVKGFYPSDIAVEWESNGQPENNYKTTPPVLDSDGSFFLYSKLTVDKSRWQQGNVFSCSVMHEALHNRYTQKSLSLSP
light: DIVMTQSPLSLPVTPGEPASISCRSSQPPVHSNRNTYLHWYQQKPGQAPRLLIYKVSNRFSGVPDRFSGSGSGTDFTLKISRVEAEDVGVYYCGQGTQVPYTFGQGTKLEIKRTVAAPSVFIFPPSDEQLKSGTASVVCLLNNFYPREAKVQWKVDNALQSGNSQESVTEQDSKDSTYSLSSTLTLSKADYEKHKVYACEVTHQGLSSPVTKSFNRGEC
notes: single-arm (one Fab)

Kd: 3.88 nM
B13: GCH094-G1dh/none-Hi-Kn010G3/L0011-k0 (antibody, human IgG1, kappa)
heavy: not shown
chain: EPKSSDKTHTCPPCPAPELLGGPSVFLFPPKPKDTLMISRTPEVTCVVVDVSHEDPEVKFNWYVDGVEVHNAKTKPREEQYNSTYRVVSVLTVLHQDWLNGKEYKCKVSNKALPAPIEKTISKAKGQPREPQVCTLPPSRDELTKNQVSLWCLVKGFYPSDIAVEWESNGQPENNYKTTPPVLDSDGSFFLYSKLTVDKSRWQQGNVFSCSVMHEALHNRYTQKSLSLSP
light: DIVMTQSPLSLPVTPGEPASISCRSSQPLVHSNRNTYLHWYQQKPGQAPRLLIYKVSNRFSGVPDRFSGSGSGTDFTLKISRVEAEDVGVYYCGQGTQVPYTFGQGTKLEIKRTVAAPSVFIFPPSDEQLKSGTASVVCLLNNFYPREAKVQWKVDNALQSGNSQESVTEQDSKDSTYSLSSTLTLSKADYEKHKVYACEVTHQGLSSPVTKSFNRGEC
notes: single-arm (one Fab)

Source: patent US20210388110A1 (published 2021)
